Test results reported in article PMC11864512.

Target: Ikoma lyssavirus glycoprotein ectodomain (IKOV-G-ecto) (Ikoma lyssavirus (IKOV))
Assay: crystal structure

Substance: Ikoma lyssavirus glycoprotein ectodomain (IKOV-G-ecto) (domain or fragment)
- stoichiometry N: 3
